Source: patent publication US20180305450A1 (AstraZeneca / MedImmune, published 2018)

B1: PaB670083 scFv (scFv, V domains shown)
VH: EVQLLESGGGLVQPGGSLRLSCAASGFTFSSYAMNWVRQAPGKGLEWVSTIHHSGHLHSHADHVKGRFTISRDNSKNTLYLQMNSLRAEDTAVYYCARINNDPMDVWGQGTLVTVSS
VL: SIELTQPPSVSVSPGQTASITCSGDNLGKKYVQWYQQKPGQSPVLVIYDDSNRPSGIPERFSGSNSGNTATLTISGTQAMDEADYYCQTWDGNPTTGETNVFGGGTKLTVL
notes: purified scFv; also called ZZ1OZB-H05
B2: PaB670089 scFv (scFv, V domains shown)
VH: EVQLLESGGGLVQPGGSLRLSCAASGFTFSSYAMNWVRQAPGKGLEWVSTISYHGSHISHADHVHGRFTISRDNSKNTLYLQMNSLRAEDTAVYYCARINNDPMDVWGQGTLVTVSS
VL: SIELTQPPSVSVSPGQTASITCSGDNLGKKYVQWYQQKPGQSPVLVIYDDSNRPSGIPERFSGSNSGNTATLTISGTQAMDEADYYCQTWDGNPTTGETNVFGGGTKLTVL
notes: purified scFv; also called ZZ1ODR-C05
B3: PaB670097 scFv (scFv, V domains shown)
VH: EVQLLESGGGLVQPGGSLRLSCAASGFTFSSYAMNWVRQAPGKGLEWVSTIHHSGHLHSYHHHVKGRFTISRDNSKNTLYLQMNSLRAEDTAVYYCARINNDPMDVWGQGTLVTVSS
VL: SIELTQPPSVSVSPGQTASITCSGDNLGKKYVQWYQQKPGQSPVLVIYDDSNRPSGIPERFSGSNSGNTATLTISGTQAMDEADYYCQTWDGNPTTGETNVFGGGTKLTVL
notes: purified scFv; also called ZZ1ODT-E11
B4: PaB670087 scFv (scFv, V domains shown)
VH: EVQLLESGGGLVQPGGSLRLSCAASGFTFSSYAMNWVRQAPGKGLEWVSTISYHGSHISYADHHKHRFTISRDNSKNTLYLQMNSLRAEDTAVYYCARINNDPMDVWGQGTLVTVSS
VL: SIELTQPPSVSVSPGQTASITCSGDNLGKKYVQWYQQKPGQSPVLVIYDDSNRPSGIPERFSGSNSGNTATLTISGTQAMDEADYYCQTWDGNPTTGETNVFGGGTKLTVL
notes: purified scFv; also called ZZ1ODR-B05
B5: PaB670090 scFv (scFv, V domains shown)
VH: EVQLLESGGGLVQPGGSLRLSCAASGFTFSSYAMNWVRQAPGKGLEWVSTISYHGHHISHADHVKHRFTISRDNSKNTLYLQMNSLRAEDTAVYYCARINNDPMDVWGQGTLVTVSS
VL: SIELTQPPSVSVSPGQTASITCSGDNLGKKYVQWYQQKPGQSPVLVIYDDSNRPSGIPERFSGSNSGNTATLTISGTQAMDEADYYCQTWDGNPTTGETNVFGGGTKLTVL
notes: purified scFv; also called ZZ1ODR-F02
B6: PaB670084 scFv (scFv, V domains shown)
VH: EVQLLESGGGLVQPGGSLRLSCAASGFTFSSYAMNWVRQAPGKGLEWVSTISHSGHLIHHADSHKGRFTISRDNSKNTLYLQMNSLRAEDTAVYYCARINNDPMDVWGQGTLVTVSS
VL: SIELTQPPSVSVSPGQTASITCSGDNLGKKYVQWYQQKPGQSPVLVIYDDSNRPSGIPERFSGSNSGNTATLTISGTQAMDEADYYCQTWDGNPTTGETNVFGGGTKLTVL
notes: purified scFv; also called ZZ1PXA-A05
B7: PaB670088 scFv (scFv, V domains shown)
VH: EVQLLESGGGLVQPGGSLRLSCAASGFTFSSYAMNWVRQAPGKGLEWVSTISYSGHLIHYADHHHGRFTISRDNSKNTLYLQMNSLRAEDTAVYYCARINNDPMDVWGQGTLVTVSS
VL: SIELTQPPSVSVSPGQTASITCSGDNLGKKYVQWYQQKPGQSPVLVIYDDSNRPSGIPERFSGSNSGNTATLTISGTQAMDEADYYCQTWDGNPTTGETNVFGGGTKLTVL
notes: purified scFv; also called ZZ1ODR-B11
B8: PaB670098 scFv (scFv, V domains shown)
VH: EVQLLESGGGLVQPGGSLRLSCAASGFTFSSYAMNWVRQAPGKGLEWVSTISHSGHLHHYADSHKHRFTISRDNSKNTLYLQMNSLRAEDTAVYYCARINNDPMDVWGQGTLVTVSS
VL: SIELTQPPSVSVSPGQTASITCSGDNLGKKYVQWYQQKPGQSPVLVIYDDSNRPSGIPERFSGSNSGNTATLTISGTQAMDEADYYCQTWDGNPTTGETNVFGGGTKLTVL
notes: purified scFv; also called ZZ1ODT-G01
B9: PaB670091 scFv (scFv, V domains shown)
VH: EVQLLESGGGLVQPGGSLRLSCAASGFTFSSYAMNWVRQAPGKGLEWVSTISHSGHLIHHHHSVKGRFTISRDNSKNTLYLQMNSLRAEDTAVYYCARINNDPMDVWGQGTLVTVSS
VL: SIELTQPPSVSVSPGQTASITCSGDNLGKKYVQWYQQKPGQSPVLVIYDDSNRPSGIPERFSGSNSGNTATLTISGTQAMDEADYYCQTWDGNPTTGETNVFGGGTKLTVL
notes: purified scFv; also called ZZ1ODR-G02
B10: PaB670092 scFv (scFv, V domains shown)
VH: EVQLLESGGGLVQPGGSLRLSCAASGFTFSSYAMNWVRQAPGKGLEWVSTISYHGSHISYHDSHHGRFTISRDNSKNTLYLQMNSLRAEDTAVYYCARINNDPMDVWGQGTLVTVSS
VL: SIELTQPPSVSVSPGQTASITCSGDNLGKKYVQWYQQKPGQSPVLVIYDDSNRPSGIPERFSGSNSGNTATLTISGTQAMDEADYYCQTWDGNPTTGETNVFGGGTKLTVL
notes: purified scFv; also called ZZ1ODR-G11
B11: PaB670093 scFv (scFv, V domains shown)
VH: EVQLLESGGGLVQPGGSLRLSCAASGFTFSSYAMNWVRQAPGKGLEWVSTISYHHHLISHADSVKGRFTISRDNSKNTLYLQMNSLRAEDTAVYYCARINNDPMDVWGQGTLVTVSS
VL: SIELTQPPSVSVSPGQTASITCSGDNLGKKYVQWYQQKPGQSPVLVIYDDSNRPSGIPERFSGSNSGNTATLTISGTQAMDEADYYCQTWDGNPTTGETNVFGGGTKLTVL
notes: purified scFv; also called ZZ1ODR-H04
B12: PaB670094 scFv (scFv, V domains shown)
VH: EVQLLESGGGLVQPGGSLRLSCAASGFTFSSYAMNWVRQAPGKGLEWVSTISYHGHHISHADHHKGRFTISRDNSKNTLYLQMNSLRAEDTAVYYCARINNDPMDVWGQGTLVTVSS
VL: SIELTQPPSVSVSPGQTASITCSGDNLGKKYVQWYQQKPGQSPVLVIYDDSNRPSGIPERFSGSNSGNTATLTISGTQAMDEADYYCQTWDGNPTTGETNVFGGGTKLTVL
notes: purified scFv; also called ZZ1ODS-B08
B13: PaB670085 scFv (scFv, V domains shown)
VH: EVQLLESGGGLVQPGGSLRLSCAASGFTFSSYAMNWVRQAPGKGLEWVSTISYHGSHISYHHSHKGRFTISRDNSKNTLYLQMNSLRAEDTAVYYCARINNDPMDVWGQGTLVTVSS
VL: SIELTQPPSVSVSPGQTASITCSGDNLGKKYVQWYQQKPGQSPVLVIYDDSNRPSGIPERFSGSNSGNTATLTISGTQAMDEADYYCQTWDGNPTTGETNVFGGGTKLTVL
notes: purified scFv; also called ZZ1ODR-A02
B14: PaB670095 scFv (scFv, V domains shown)
VH: EVQLLESGGGLVQPGGSLRLSCAASGFTFSSYAMNWVRQAPGKGLEWVSTISYHGHHISYADSHHHRFTISRDNSKNTLYLQMNSLRAEDTAVYYCARINNDPMDVWGQGTLVTVSS
VL: SIELTQPPSVSVSPGQTASITCSGDNLGKKYVQWYQQKPGQSPVLVIYDDSNRPSGIPERFSGSNSGNTATLTISGTQAMDEADYYCQTWDGNPTTGETNVFGGGTKLTVL
notes: purified scFv; also called ZZ1ODS-H05

Tests used:
[1] = biological target: T1, recombinant biotinylated human PAR2 extracellular domain (residues 1-75), N-terminal AviTag, C-terminal Flag … (human, UniProt P55085 26-75, biotin on the AviTag (enzymatic biotinylation)); experiment: HTRF competition with Par0067 IgG, scFv
T1 construct: also called Bio-human-PAR2 ECD; human PAR2 ECD; not shown: N-terminal AviTag (Avidity LLC); C-terminal Flag and poly Histidine tags
Experimental: (§1) 5 μl/well of the appropriate pH 4.44 nM Par0067 IgG solution was added to all wells of the relevant assay plate (pH 7.4 and pH 6.0).
(§2) Test scFv Preparation/Addition: [0172] a) For parallel single point HTS of crude un-purified bacterial lysate scFv samples at both pH 7.4 and pH 6.0 samples were first pre-diluted to 40% of their neat concentration using either pH 7.4 or pH 6.0 assay buffer as appropriate. Subsequently 5 μl of 40% pre-diluted sample was then transferred into the appropriate assay (pH 7.4 or pH 6.0) in order to give a final assay sample concentration of 10.0% (in the 20 μl final assay volume). The parent Par0067 scFv was included in all HTS experiments as a control as were specific pH dependent antibodies as those became available (for benchmarking). […] Duplicate 11 point 1:3 serial dilutions then were prepared on 384 well polypropylene Greiner plates in each of the two assay buffers (pH 7.4 & 6.0). 5 μl per well of each serial dilution was transferred from the relevant pH scFv dilution plate to the corresponding assay plate (pH 7.4 and pH 6.0). 5 μl of the appropriate pH assay buffer was added to the total and non-specific wells. The parent Par0067 purified scFv was included in all multipoint dose response IC₅₀ experiments as a control as were specific pH dependent purified scFv as those became available (for benchmarking).
(§3) For multipoint dose response curves % Specific Binding values were plotted versus test purified antibody concentration (scFv or IgG). IC₅₀ values were determined via a sigmoidal dose response inhibition variable slope curve fit (4 parameter logistic equation) using Graphpad Prism Software.

[2] = biological target: T1, recombinant biotinylated human PAR2 …; experiment: HTRF competition with Par0067 IgG, pH 6.0, scFv
Experimental: as §1, §2, §3

[3] = biological target: T1, recombinant biotinylated human PAR2 …; experiment: HTRF competition with Par0067 IgG, pH 7.4, scFv
Experimental: as §1, §2, §3

T1 sequence (P55085 26-75): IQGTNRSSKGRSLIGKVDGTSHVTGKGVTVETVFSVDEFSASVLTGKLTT

Row | Binder | Fold IC50 (pH 6.0 v pH 7.4) [1] [fold] | Fold IC50 pH 7.4 (Variant v Par0067) [1] [fold] | IC50 [2] [nM] | IC50 [3] [nM]
1 | B1 | 3.4 | 13.7 | 152 | 45.2
2 | B2 | 4.5 | 9.1 | 134 | 29.9
3 | B3 | 3.6 | 6.6 | 77.9 | 21.8
4 | B4 | 3.2 | 12.4 | 131 | 40.9
5 | B5 | 3.8 | 6.8 | 85.5 | 22.6
6 | B6 | 5.2 | 16.5 | 283 | 54.5
7 | B7 | 3.8 | 9 | 115 | 29.8
8 | B8 | 3.2 | 20 | 210 | 65.9
9 | B9 | 3.9 | 7.6 | 98.9 | 25.2
10 | B10 | 4.7 | 12.5 | 194 | 41.1
11 | B11 | 3.2 | 5.6 | 58.7 | 18.6
12 | B12 | 3.3 | 22 | 237 | 72.5
13 | B13 | 3.2 | 14.6 | 155 | 48.1
14 | B14 | 5.7 | 6.1 | 113 | 20
